{
  "source": "paper PMC9368738",
  "about": "“The Mechanistic Understanding of RAD51 Defibrillation: A Critical Step in BRCA2-Mediated DNA Repair by Homologous Recombination” (International Journal of Molecular Sciences, 2022)",
  "molecules": {"B1": {"name": "full-length recombinant human RAD51 (N-terminal 6xHis-tagged), Q06609 1-339 (natural protein)", "chain": "MAMQMQLEANADTSVEEESFGPQPISRLEQCGINANDVKKLEEAGFHTVEAVAYAPKKELINIKGISEAKADKILAEAAKLVPMGFTTATEFHQRRSEIIQITTGSKELDKLLQGGIETGSITEMFGEFRTGKTQICHTLAVTCQLPIDRGGGEGKAMYIDTEGTFRPERLLAVAERYGLSGSDVLDNVAYARAFNTDHQTQLLYQASAMMVESRYALLIVDSATALYRTDYSGRGELSARQMHLARFLRMLLRLADEFGVAVVITNQVVAQVDGAAMFAADPKKPIGGNIIAHASTTRLYLRKGRGETRICKIYDSPCLPEAEAMFAINADGVGDAKD"}, "B2": {"name": "BRC4 peptide (residues 1517-1551 of BRCA2) (peptide)", "peptide": "KEPTLLGFHTASGKKVKIAKESLDKVKNLFDEKEQ", "notes": "BRCA2, fourth BRC repeat, residues 1517-1551, MW 3957.6 Da; also called fourth BRC repeat of BRCA2; source: bought: Thermo Fisher Scientific (synthetic peptide)"}, "B3": {"name": "biotinylated BRC4 peptide (peptide)", "peptide": "B2 peptide", "modifications": "biotin (position not given)", "notes": "BRCA2, fourth BRC repeat, residues 1517-1551, as BRC4; also called labelled peptide; source: bought: Thermo Fisher Scientific (synthetic peptide, BRC4 derivative)"}},
  "key": {"[1]": {"test_system": "RAD51 foci in BxPC-3 cell nuclei", "test": "Immunofluorescence detection of RAD51 nuclear foci", "format": "cell-based", "details": "1.5 h", "method": "General cell culture. BxPC-3 cells (purchased from ATCC) were grown in RPMI 1640 containing 10% FBS, 100 U/mL penicillin–streptomycin, and 2 mM glutamine. All media and supplements were from Sigma-Aldrich. Cultures were routinely tested for mycoplasma contamination. Immunofluorescence. Immunofluorescence was used to study RAD51 nuclear translocation. To visualize RAD51 in cell nuclei, BxPC-3 cells were seeded on glass coverslips placed in a 6-well culture plate (2 × 10^5 cells/well) and allowed to adhere for 24 h. […] The medium was then removed to eliminate the chemotherapeutic agents, and cells were maintained in the presence of 5 µM BRC4myr for an additional 4 h. After this time, cells were fixed with PBS containing PFA 4% for 15 min, permeabilized in 70% ethanol, and then washed twice in PBS. […] After washing, coverslips were incubated in secondary anti-rabbit rhodamine-labelled antibody (Novus Biologicals, 1:1000 in 1% BSA/PBS) for 30 min at 37 °C, washed, air-dried, and mounted in a solution 2 µg/mL DAPI in DABCO. Images were acquired using a Nikon fluorescent microscope equipped with filters for TRITC and DAPI. The percentage of cells bearing nuclear foci was estimated by analyzing approximately 300 cells for each treatment sample."}, "RAD51 (Homo sapiens)": {"target": "RAD51 (Homo sapiens) (UniProt Q06609)", "test": "GST pull-down", "details": "cited from earlier work"}, "RAD51": {"test_system": "RAD51", "details": "pull-down assays; cited from earlier work", "from_the_text": "This information comes from the only 3D structure of the RAD51-BRC4 interaction (PBD 1NOW)."}, "[2]": {"target": "full-length recombinant human RAD51 (N-terminal 6xHis-tagged) (human) (UniProt Q06609)"}, "RAD51 fibrils": {"test_system": "RAD51 fibrils", "test": "Negative staining TEM of RAD51 fibrils", "format": "biochemical, human", "details": "large stoichiometric excess of peptide; RAD51 0.1 mg/mL (2.5 µM); incubation 2 h at 4 °C"}, "[3]": {"target": "T1, RAD51 fibrils (full-length recombinant human RAD51) (Homo sapiens, UniProt Q06609)", "T1 construct": "The full-length human RAD51 was expressed in E. coli Rosetta2(DE3) pLysS cells; made in house; host or cells: E. coli Rosetta2(DE3) pLysS, pET15b plasmid", "T1 sequence (Q06609 1-339)": "B1 chain", "test": "Static light scattering (SLS / CG-MALS) of BRC4-induced RAD51 defibrillation", "format": "biochemical", "details": "RAD51 6.25 µM = 0.25 mg/mL; very significant stoichiometric excesses of peptide"}, "[4]": {"target": "T2, 6xHis-RAD51 (full-length recombinant human RAD51) (Homo sapiens, UniProt Q06609)", "T2 construct": "The full-length human RAD51 was expressed in E. coli Rosetta2(DE3) pLysS cells; made in house; host or cells: E. coli Rosetta2(DE3) pLysS, pET15b plasmid", "T2 sequence (Q06609 1-339)": "B1 chain", "test": "Microscale thermophoresis (MST)", "format": "binding", "details": "highest concentration tested 400 μM; data not shown"}, "[5]": {"target": "T3, full-length recombinant human RAD51 (N-terminal 6xHis-tagged) (human), Q06609", "T3 chain": "B1 chain", "test": "static light scattering (CG-MALS, Zimm plots); RAD51 alone at five concentrations between 0.1 and 0.35 mg/mL (2.5-8.75 µM); 20 mM HEPES pH 8, 0.1 mM EDTA, 250 mM KCl, 5% glycerol, 2 mM DTT", "details": "remark: other sources report otherwise"}, "[6]": {"target": "T4, full-length recombinant human RAD51 (N-terminal 6xHis-tagged) (human, UniProt Q06609 1-339)", "T4 construct": "RAD51, human, full length; recombinase of 339 amino acids, about 40 kDa as monomer; Forms fibrils (homo-oligomers) without DNA; for MST labelled on the His tag with RED-tris-NTA 2nd Generation dye; also called His-RAD51; 6xHis-RAD51; source: E. coli Rosetta2(DE3) pLysS, pET15b, purified (His-Trap, anion exchange); not shown: His6, N-terminal, kept", "T4 sequence (looked up)": "B1 chain", "test": "static light scattering (CG-MALS) + other: dynamic light scattering; RAD51 constant at 0.25 mg/mL (6.25 µM) with BRC4 or scBRC4 from 0 to 0.19 mg/mL (48 µM); 20 mM HEPES pH 8, 0.1 mM EDTA, 250 mM KCl, 5% glycerol, 2 mM DTT; DLS at 25 °C; step constants kd and kd1 from a defibrillation model fitted to the apparent weight average mass", "details": "both partners purified"}, "[7]": {"target": "T4, full-length recombinant human RAD51 …", "test": "MST; RED-tris-NTA-labelled 6xHis-RAD51 constant (25 nM in the methods, 100 nM in the results), 16 concentrations of BRC4 up to 32 µM; apparent Kd bounded by the lowest EC50 (titration regime)", "details": "both partners purified"}, "[8]": {"target": "T4, full-length recombinant human RAD51 …", "test": "static light scattering + other: dynamic light scattering + MST; midpoint of BRC4-induced RAD51 defibrillation against the BRC4/RAD51 molar ratio, RAD51 6.25 µM (SLS, DLS) or 100 nM (MST)", "details": "both partners purified"}, "[9]": {"target": "T4, full-length recombinant human RAD51 …", "test": "negative-staining TEM with streptavidin-gold labelling; 0.1 mg/mL (2.5 µM) 6xHis-RAD51 with biotinylated BRC4 (non-labelled BRC4 as control) on grids, streptavidin-gold", "details": "both partners purified"}},
  "note": "Several values for one entry are separate records, joined by “and”; a condition that tells them apart may be missing. Equal values may be shown once.",
  "data": [
    {"molecule": "N.N.[Cl][Pt][Cl]", "note": "[cisplatin]", "values": [
      {"measurement": "RAD51 nuclear foci, cisplatin alone", "setting": "[1]; 50 µM cisplatin", "value": "large number of nuclear RAD51 foci"}
    ]},
    {"molecule": "COc1cccc2c1C(=O)c1c(O)c3c(c(O)c1C2=O)C[C@@](O)(C(=O)CO)C[C@@H]3O[C@H]1C[C@H](N)[C@H](O)[C@H](C)O1", "note": "[doxorubicin]", "values": [
      {"measurement": "RAD51 nuclear foci, doxorubicin alone", "setting": "[1]; 200 nM doxorubicin", "value": "large number of nuclear RAD51 foci"}
    ]},
    {"molecule": "BRCA2 BRC4 (from UniProt P51587)", "values": [
      {"measurement": "Kd", "setting": "RAD51 (Homo sapiens)", "value": 1500, "unit": "nM"}
    ]},
    {"molecule": "BRCA2: large protein (3418 amino acids) that interacts with RAD51 through eight BRC repeats", "values": [
      {"measurement": "BRCA2-RAD51 binding affinity", "setting": "RAD51", "value": "nanomolar affinity"}
    ]},
    {"molecule": "myristoylated BRC4 peptide (BRC4myr)", "values": [
      {"measurement": "homologous recombination (HR) assay in BxPC-3 cells, IC50 of HR inhibition", "setting": "[2]", "value": 10, "unit": "µM"},
      {"measurement": "homologous recombination (HR) assay in BxPC-3 cells, percent HR inhibition at 5, 10 and 30 µM BRC4myr", "setting": "[2]", "value": 85.1, "unit": "%"}
    ]},
    {"molecule": "scBRC4: BRC4 (35 residues) peptide, carrying a double mutation [F1524A, T1526A] (KEPTLLGAHAASGKKVKIAKESLDKVKNLFDEKEQ)", "values": [
      {"measurement": "RAD51 fibrils in TEM", "setting": "RAD51 fibrils", "value": "the fibrils were still visible"},
      {"measurement": "apparent weight average mass versus no-interaction prediction", "setting": "[3]", "value": "followed the theoretical “no-interaction” prediction"},
      {"measurement": "binding to RAD51 (MST)", "setting": "[4]", "value": "no binding"}
    ]},
    {"molecule": "B1", "values": [
      {"measurement": "stoichiometry N (protomers per aggregate)", "setting": "[5]", "value": "40 and 70"}
    ]},
    {"molecule": "B2", "values": [
      {"measurement": "kd (each step of loss of a RAD51 unit from a fibril, from the defibrillation model)", "setting": "[6]", "value": "33.7 ± 0.5", "unit": "dimensionless"},
      {"measurement": "Kd", "setting": "[7]", "value": "≤ 60", "unit": "nM"},
      {"measurement": "stoichiometry N", "setting": "[8]", "value": 1, "unit": "BRC4 per RAD51"}
    ]},
    {"molecule": "B3", "values": [
      {"measurement": "binding result", "setting": "[9]", "value": "binds"}
    ]}
  ]
}
